We go through 1 substance from article doi:10.1101/2025.08.19.671159.

This assay deals with 14-3-3ζ of the Tni-FNL-produced BRAF complexes (human) (UniProt P63104). The assay is described as follows: cryo-EM structure; BRAF:14-3-3_(2):MEK complex co-expressed in Tni-FNL insect cells and purified as a complex; 3.8 Å.

In the case of “14-3-3ζ of the Tni-FNL-produced BRAF complexes (from UniProt P63104 1-245) (natural protein)”, the stoichiometry N was 2.
